Experimental data taken from paper PMC11771145 (Nature, 2024).

Biological target: the molecule itself
Experiment: cryo-EM, 2D class averages

B1: Vitiosangium bGSDM, engineered with a thrombin site and cleaved by thrombin (active N-terminal pore-forming domain) (domain or fragment, Vitiosangium sp. GDMCC 1.1324)
chain: SGLCSDPAITYLKRLGYNVVRLPREGIQPLHLLGQQRGTVEYLGSLEKLITQPPSEPPAITRDQAAAGINGQKTENLSFSIGINILKSVLAQFGAGAGIEAQYNQARKVRFEFSNVLADSVEPLAVGQFLKMAEVDADNPVLKQYVLGNGRLYVITQVIKSNEFTVAAEKSGGGSIQLDVPEIQKVVGGKLKVEASVSSQSTVTYKGEKQLVFGFKCFEIGVKNGEITLFASQLVPR
- stoichiometry N: 48 to 54 protomers
